In patent publication KR20240094169A (dated 2024):

T1: BCMA (B-cell maturation antigen) expressed on multiple myeloma H929 cells (UniProt Q02223 1-184, limits assumed)
T1 construct: whole, on cells; also called TNFRSF17; CD269
T1 sequence (looked up): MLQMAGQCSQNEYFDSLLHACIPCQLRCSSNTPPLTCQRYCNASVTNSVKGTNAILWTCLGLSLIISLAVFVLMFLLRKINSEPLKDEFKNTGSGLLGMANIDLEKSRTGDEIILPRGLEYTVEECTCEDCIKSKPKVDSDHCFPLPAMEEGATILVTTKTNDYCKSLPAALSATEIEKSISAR


Molecular target: T1, BCMA (B-cell maturation antigen) …
Assay: flow cytometry on H929 cells, 1 ㎍ sdAb, PE-conjugated secondary antibody

Row | Binder | binding result
1 | 항-BCMA sdAb No.11 (VHH, Camel-derived single-domain antibody from a phage library; also called anti-BCMA sdAb No.11; 항-BCMA No.11) VHH: KLEESGGGSVQTGGSLRLTCAASGSISRLDNMGWFRQAPGKERELVAAINSKSNKTNYADSVKGRFTISRDNAKNTVDLQMNSLKPEDTAIYYCANWSFDKHRAYWGQGTQVTVSS | binds
2 | 항-BCMA sdAb No.7 (VHH, Camel-derived single-domain antibody from a phage library; also called anti-BCMA sdAb No.7; 항-BCMA No.7) VHH: KLEESGGGSVQTGGSLRLTCAASGSIFSSGFMAWFRQAPGKEREFVSGISWRGDSTGYADSVKGRFTISRDNAKNTVDLQMNSLKPEDTAIYYCAARGTDTAYWGQGTQVTVSS | binds
3 | 항-BCMA sdAb No.19 (VHH, Camel-derived single-domain antibody from a phage library; also called anti-BCMA sdAb No.19; 항-BCMA No.19) VHH: KLEESGGGSVQTGGSLRLTCAASGIIFSDDAIGWFRQAPGKERELVSLIDSKSSTYYADSVKGRFTISRDNAKNTVDLQMNSLKPEDTAIYYCNDHKRRQAMEYWGQGTQVTVSS | binds
